{"source": "patent US20210379110A1", "about": "(LENTIGEN TECHNOLOGY, published 2021)", "key": {"[1]": {"target": "T1, recombinant human CD22 (labeled) (human, UniProt P20273 20-687, limits assumed)", "T1 construct": "Labeled antigen titrated on yeast; It may be CD22-Fc; also called labeled CD22", "T1 sequence (looked up)": "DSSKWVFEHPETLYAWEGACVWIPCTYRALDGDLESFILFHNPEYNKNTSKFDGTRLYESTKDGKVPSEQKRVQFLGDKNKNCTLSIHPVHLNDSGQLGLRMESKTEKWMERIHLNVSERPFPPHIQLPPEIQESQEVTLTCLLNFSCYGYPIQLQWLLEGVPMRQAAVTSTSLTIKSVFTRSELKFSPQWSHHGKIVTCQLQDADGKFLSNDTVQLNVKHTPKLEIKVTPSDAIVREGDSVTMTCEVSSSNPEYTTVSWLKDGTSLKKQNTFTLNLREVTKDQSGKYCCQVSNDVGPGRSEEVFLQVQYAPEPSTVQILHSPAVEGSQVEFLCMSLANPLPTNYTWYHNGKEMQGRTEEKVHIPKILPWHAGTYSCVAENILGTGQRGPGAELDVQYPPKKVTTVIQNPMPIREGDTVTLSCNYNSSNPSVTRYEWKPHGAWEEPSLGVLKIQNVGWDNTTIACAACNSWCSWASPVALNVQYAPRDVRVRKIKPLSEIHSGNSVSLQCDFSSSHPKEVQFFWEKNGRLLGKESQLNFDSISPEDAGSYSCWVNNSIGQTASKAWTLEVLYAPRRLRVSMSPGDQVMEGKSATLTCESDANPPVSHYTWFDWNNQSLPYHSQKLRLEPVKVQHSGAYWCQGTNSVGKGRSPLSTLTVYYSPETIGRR", "test": "flow cytometry of yeast-displayed scFv with decreasing amounts of labeled CD22", "procedure": "After electroporation, the resulting mutant library was then grown overnight at 30° C. for 16 hours in SDCAA medium and then switched into SGCAA medium at 30° C. for another 16 hours. The mutant library was then sorted through MACS (immunomagnetic column, Miltenyi Biotec) with CD22-Fc as the capture antigen to downsize the library and to increase the population of mutants that could bind to CD22-Fc. The strongest binders were then selected by double staining the pools with Anti-c-Myc-Alexa 488 and […] and selecting for the binders that had the highest binding affinities as well as c-Myc expression levels. This process was then repeated two more times, until flow cytometry of yeast particles with fluorescently tagged antigen yielded average binding affinities of the mutant pools that were increased over the starting construct. Binding affinities were estimated by flow cytometry of yeast pools using decreasing amounts of labeled CD22."}, "[2]": {"target": "T2, CD22-Fc peptide (R&D systems) (UniProt P20273 20-687)", "T2 construct": "Bought reagent (R&D systems); not shown: Fc part of the bought reagent", "T2 sequence (looked up)": "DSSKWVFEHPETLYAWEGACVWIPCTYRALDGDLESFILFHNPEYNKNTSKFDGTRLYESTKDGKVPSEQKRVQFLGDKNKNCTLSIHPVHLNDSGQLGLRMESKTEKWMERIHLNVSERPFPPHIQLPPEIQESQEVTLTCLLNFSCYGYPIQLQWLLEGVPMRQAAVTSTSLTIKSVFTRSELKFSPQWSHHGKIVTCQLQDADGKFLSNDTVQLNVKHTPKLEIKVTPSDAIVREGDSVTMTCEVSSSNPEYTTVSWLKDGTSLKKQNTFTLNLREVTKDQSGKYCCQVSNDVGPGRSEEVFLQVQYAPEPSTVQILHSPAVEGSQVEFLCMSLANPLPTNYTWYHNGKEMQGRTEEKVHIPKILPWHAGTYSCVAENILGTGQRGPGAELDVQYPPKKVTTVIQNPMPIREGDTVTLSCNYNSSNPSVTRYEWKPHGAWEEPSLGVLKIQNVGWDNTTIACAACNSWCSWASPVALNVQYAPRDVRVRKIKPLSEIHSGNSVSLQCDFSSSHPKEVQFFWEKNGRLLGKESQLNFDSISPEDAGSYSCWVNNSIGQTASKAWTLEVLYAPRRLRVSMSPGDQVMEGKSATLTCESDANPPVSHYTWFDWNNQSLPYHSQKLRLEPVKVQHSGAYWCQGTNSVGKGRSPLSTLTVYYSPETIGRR", "test": "flow cytometry, CAR T cells stained with CD22-Fc then anti-Fc AF647", "procedure": "(§1) For CAR surface expression, TSLPR Fc, CD19Fc and CD22Fc peptide (R&D systems, Minneapolis, Minn.) were used followed anti Fc-AF647 (Jackson ImmunoResearch, West Grove, Pa.). T cell subtypes was further identified with anti-CD4 antibody conjugated to VioBlue fluorophore (Miltenyi Biotec Bergisch Gladbach, Germany). Dead cells in all studies were excluded by 7AAD staining (BD Biosciences, San Jose, Calif.). Flow data were analyzed with MACSQuantify software.\nTo develop the tandem CD22 and TSLPR targeting CARs, CD22-directed scFv 16P17 was used in either membrane-proximal or membrane-distal orientation (construct D0103 and D0104, respectively). For TSLPR-targeting, scFv 3G11 was used. Surface expression of the tandem TSLPR×CD22 CAR incorporating the human ScFv 16P17 together with the TSLPR scFv 3G11, when the TSLPR scFv is positioned in the membrane-distal orientation (D0103), or in the membrane-proximal orientation (D0104) is shown in FIG. 5. Specific detection of each scFv domain within the CAR structure was facilitated by CAR T cell staining with TSLPR-Fc peptide, or CD22-Fc peptide, followed by a secondary staining with anti-Fc AF647-labeled reagent, and detected in the APC channel by flow cytometry. In CAR construct D0103, in which CD22 scFv was membrane-proximal and the TSLPR scFv was membrane-distal, the TSLPR scFv was detected at 26% of the transduced cells, and CD22 scFv was detected at 11%. In CAR construct D0104 with the opposite binder orientation (i.e. the CD22 scFv was membrane-distal, and the TSLPR scFv was membrane-proximal), the detection levels were 75% and 39% for scFv TSLPR and CD22, respectively (FIG. 5).\nThe surface expression of the tandem TSLPR×CD22 CAR incorporating the human ScFv m971 in membrane-proximal orientation (D0111), and in the membrane-distal orientation (D0112) is shown in FIG. 8. Specific detection of each scFv domain within the CAR structure was facilitated by CAR T cell staining with TSLPR-Fc peptide, or CD22-Fc peptide, followed by a secondary staining with anti-Fc AF647-labeled reagent and detection in the APC channel by flow cytometry. In CAR construct D0111, in which CD22 scFv was membrane-proximal and the TSLPR scFv was membrane-distal, the TSLPR scFv was detected at 34% of the transduced cells, and CD22 scFv was detected at 11%."}, "[3]": {"target": "T3, TSLPR-Fc peptide (R&D systems) (UniProt Q9HC73 25-231)", "T3 construct": "Bought reagent (R&D systems); also called TSLPR-Fc reagent; not shown: Fc part of the bought reagent", "T3 sequence (looked up)": "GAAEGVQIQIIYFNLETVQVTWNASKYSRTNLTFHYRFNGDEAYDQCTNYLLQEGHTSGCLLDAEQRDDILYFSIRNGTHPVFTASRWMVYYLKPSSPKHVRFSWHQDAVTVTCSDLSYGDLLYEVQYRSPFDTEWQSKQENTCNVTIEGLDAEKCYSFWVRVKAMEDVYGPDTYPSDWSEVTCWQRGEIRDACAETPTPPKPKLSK", "test": "flow cytometry, CAR T cells stained with TSLPR-Fc then anti-Fc AF647", "procedure": "as §1, with “Flow cytometric analysis was performed to detect the CAR molecule surface expression. Half million of harvested primary T cells were washed and stained with cold AutoMACS buffer supplemented with 0.5% bovine serum albumin (Miltenyi Biotec, Bergisch Gladbach, Germany), and resuspended in 200 ul Running Buffer before acquired by MACSQuant®10 Analyzer (Miltenyi Biotec Bergisch Gladbach, Germany). For” for “For”\nSpecific detection of each scFv domain within the CAR structure was facilitated by CAR T cell staining with TSLPR-Fc peptide, or CD19-Fc peptide, followed by a secondary staining with anti-Fc AF647-labeled reagent, and fluorescence was detected in the APC channel. In CAR construct D0101, in which CD19 scFv was membrane-proximal and the TSLPR scFv was membrane-distal, the TSLPR scFv was detected at 44% of the transduced cells, and CD19 scFv was detected at 31%. In CAR construct D0102 with the reverse binder orientation (i.e. the TSLPR scFv membrane-proximal, and CD19 scFv membrane-distal), the detection levels were 85% and 75% for scFv TSLPR and CD19, respectively (FIG. 2)."}}, "data": [{"binder": "human anti-CD22 ScFv binder 16P17 (scFv, V domains shown, In the CARs the order is VH-(GGGGS)3-VL; also called CD22 scFv 16P17) VH: QVQLQQSGPGLVKHSQTLSLTCAISGDSVSSNSAAWNWIRQSPSRGLEWLGRTYYRSKWYNDYAVSVKSRITINPDTSKNQFSLQLNSVTPEDTAVYYCAQEVEPHDAFDIWGQGTMVTVSS VL: DIQMTQSPSSVYASVGDKVTITCRASQDVSGWLAWYQQKPGLAPQLLISGASTLQGEVPSRFSGSGSGTDFTLTISSLQPEDFATYYCQQAKYFPYTFGQGTKLEIK", "values": [{"measurement": "EC50", "setting": "[1]", "value": "< 0.01", "unit": "µg/mL"}]}, {"binder": "D0111 (EF-1a-TSLPR-CD22 (m971) CD8 BBz) (other, Tandem chimeric antigen receptor on human primary T cells: leader, TSLPR scFv 3G11 (membrane-distal), (GGGGS)5, CD22 scFv m971, CD8 hinge/TM, 4-1BB, CD3 zeta; also called CAR TSLPR-22m971 BBz) QVTLKESGPGILKPSQTLSLTCSFSGFSLSTSGMGVGWIRQPSGKGLEWLAHIWWDDDKYYNPSLKSQLTISKDTSRNQVFLKITSVDTADTATYYCSRRPRGTMDAMDYWGQGTSVTVSSGGGGSGGGGSGGGGSDIVMTQAASSLSASLGDRVTISCRASQDISKYLNWYQQKPDGTVKLLIYYTSRLHSGVPSRFSGSGSGTDYSLTIRNLEQEDIATYFCQQVYTLPWTFGGGTKLEIKGGGGSGGGGSGGGGSGGGGSGGGGSQVQLQQSGPGLVKPSQTLSLTCAISGDSVSSNSAAWNWIRQSPSRGLEWLGRTYYRSKWYNDYAVSVKSRITINPDTSKNQFSLQLNSVTPEDTAVYYCAREVTGDLEDAFDIWGQGTMVTVSSGGGGSGGGGSGGGGSDIQMTQSPSSLSASVGDRVTITCRASQTIWSYLNWYQQRPGKAPNLLIYAASSLQSGVPSRFSGRGSGTDFTLTISSLQAEDFATYYCQQSYSIPQTFGQGTKLEIKAAATTTPAPRPPTPAPTIASQPLSLRPEACRPAAGGAVHTRGLDFACDIYIWAPLAGTCGVLLLSLVITLYCKRGRKKLLYIFKQPFMRPVQTTQEEDGCSCRFPEEEEGGCELRVKFSRSADAPAYQQGQNQLYNELNLGRREEYDVLDKRRGRDPEMGGKPRRKNPQEGLYNELQKDKMAEAYSEIGMKGERRRGKGHDGLYQGLSTATKDTYDALHMQALPPR", "values": [{"measurement": "percent of transduced T cells stained by antigen-Fc", "setting": "[2]", "value": 11, "unit": "%"}, {"measurement": "percent of transduced T cells stained by antigen-Fc", "setting": "[3]", "value": 34, "unit": "%"}]}, {"binder": "D0112 (EF-1a-CD22 (m971)-TSLPR CD8 BBz) (other, Tandem chimeric antigen receptor on human primary T cells: leader, CD22 scFv m971 (membrane-distal), (GGGGS)5, TSLPR scFv 3G11, CD8 hinge/TM, 4-1BB, CD3 zeta; also called CAR 22m971-TSLPR BBz) QVQLQQSGPGLVKPSQTLSLTCAISGDSVSSNSAAWNWIRQSPSRGLEWLGRTYYRSKWYNDYAVSVKSRITINPDTSKNQFSLQLNSVTPEDTAVYYCAREVTGDLEDAFDIWGQGTMVTVSSGGGGSGGGGSGGGGSDIQMTQSPSSLSASVGDRVTITCRASQTIWSYLNWYQQRPGKAPNLLIYAASSLQSGVPSRFSGRGSGTDFTLTISSLQAEDFATYYCQQSYSIPQTFGQGTKLEIKGGGGSGGGGSGGGGSGGGGSGGGGSQVTLKESGPGILKPSQTLSLTCSFSGFSLSTSGMGVGWIRQPSGKGLEWLAHIWWDDDKYYNPSLKSQLTISKDTSRNQVFLKITSVDTADTATYYCSRRPRGTMDAMDYWGQGTSVTVSSGGGGSGGGGSGGGGSDIVMTQAASSLSASLGDRVTISCRASQDISKYLNWYQQKPDGTVKLLIYYTSRLHSGVPSRFSGSGSGTDYSLTIRNLEQEDIATYFCQQVYTLPWTFGGGTKLEIKAAATTTPAPRPPTPAPTIASQPLSLRPEACRPAAGGAVHTRGLDFACDIYIWAPLAGTCGVLLLSLVITLYCKRGRKKLLYIFKQPFMRPVQTTQEEDGCSCRFPEEEEGGCELRVKFSRSADAPAYQQGQNQLYNELNLGRREEYDVLDKRRGRDPEMGGKPRRKNPQEGLYNELQKDKMAEAYSEIGMKGERRRGKGHDGLYQGLSTATKDTYDALHMQALPPR", "values": [{"measurement": "percent of transduced T cells stained by antigen-Fc", "setting": "[2]", "value": 39, "unit": "%"}, {"measurement": "percent of transduced T cells stained by antigen-Fc", "setting": "[3]", "value": 73, "unit": "%"}]}]}
